Source: patent publication US20250186614A1, “COMPACT DRUG RESPONSIVE DOMAINS FOR REGULATION OF FUNCTION/ABUNDANCE AND DELIVERY OF POLYPEPTIDE PAYLOADS” (OBSIDIAN THERAPEUTICS, INC., priority 2022, published 2025)

System: Jurkat cells
Assay: Tacrolimus dose response of FKBP13-AcGFP-mCherry constructs stably transduced into Jurkat cells, GFP MFI by flow cytometry
Format: cell-based
Design: Basal: unit not given here
Conditions: for DRD function after abrogating the disulfide bonds: FIG. 4; for basal AcGFP expression: absence of tacrolimus
Experimental: The regulation of AcGFP, from FKBP13-AcGFP-mCherry constructs, in Jurkat cells, was also studied. Jurkat Clone E6-1 cells were cultured in standard media (RPMI+GlutaMAX Supplement (Life Technologies, Carlsbad, CA Cat #61870127), Fetal Bovine Serum (FBS) (Life Technologies Cat #10-082-147)). Jurkat cells were transduced with lentivirus produced with each of FKBP-039, FKBP-040, FKBP-041, FKBP-042, FKBP-043, FKBP-044, or FKBP-045 constructs. Jurkat cells were transduced until they were 10-25% positive, as determined on day 5 post-transduction, by using mCherry as a transduction marker. […] The Geometric Mean Fluorescent Intensity (MFI) of GFP expression in mCherry+ cells was plotted and dose response curve fits were performed using Prism Software (San Diego, CA).
FKBP-091 was used as a comparative construct.
FIGS. 22-38 show the results of characterization of FKBP-160-292. […] FKBP-091 and FKBP-117 was used as a comparative control for FKBP-160-FKBP-255. FKBP-195 was used as a comparative control for FKBP-256-FKBP-275. FKBP-117, FPBP-195 and FKBP-251 were used as a comparative control for FKBP-276-FKBP-292.
FKBP mutants were cloned in a manner to make a fusion protein with AcGFP in order to assess FKBP mutant regulation by using AcGFP expression as a readout. […] Further iterative FKBP mutants (FKBP-256-FKBP-292) were constructed from these initial combinatorial mutants to see if we could further improve FKBP DRD properties.

[1] = tacrolimus dose response, Jurkat cells stably transduced (FIG. 4), Table 4
[2] = tacrolimus, Jurkat cells, Table 13

B1: FKBP-062: FKBP13 DRD Q72R, Q84E, A117H, M54A, [−]disulfide; SEQ ID NO: 18 (protein)
chain: HSPIKSRKGDVLHAHYTGKLEDGTEFDSSLPRNQPFVFSLGTGEVIKGWDQGLLGMSEGEKRKLVIPSELGYGERGHPPKIPGGATLVFEVELLKIER
modifications: disulfide removed; Description of sequence: FKBP13-AcGFP-mCherry Fusion; Construct Name: FKBP-062; FKBP13 DRD in Construct : FKBP13 (mutated to match FKBP12 active site - Q72R Q84E A117H) (DRD - M54A [-]disulfide)
DRD function after abrogating the disulfide bonds (tacrolimus dose response): did not create a significant difference in DRD function
Fold Change [1]: 10.4

B2: FKBP-053: FKBP13 DRD Q72R, Q84E, A117H, D90G, F66H; SEQ ID NO: 9 (protein)
chain: HCPIKSRKGDVLHMHYTGKLEDGTEHDSSLPRNQPFVFSLGTGEVIKGWGQGLLGMCEGEKRKLVIPSELGYGERGHPPKIPGGATLVFEVELLKIER
modifications: Description of sequence: FKBP13-AcGFP-mCherry Fusion; Construct Name: FKBP-053; FKBP13 DRD in Construct : FKBP13 (mutated to match FKBP12 active site - Q72R Q84E A117H) (DRD - D90G F66H)
Fold Change [1]: 1.0

B3: FKBP-058: FKBP13 DRD Q72R, Q84E, A117H, L52A; SEQ ID NO: 14 (protein)
chain: HCPIKSRKGDVAHMHYTGKLEDGTEFDSSLPRNQPFVFSLGTGEVIKGWDQGLLGMCEGEKRKLVIPSELGYGERGHPPKIPGGATLVFEVELLKIER
modifications: Description of sequence: FKBP13-AcGFP-mCherry Fusion; Construct Name: FKBP-058; FKBP13 DRD in Construct : FKBP13 (mutated to match FKBP12 active site - Q72R Q84E A117H) (DRD - L52A)
Fold Change [1]: 8.1

B4: FKBP-057: FKBP13 DRD Q72R, Q84E, A117H, I106A; SEQ ID NO: 13 (protein)
chain: HCPIKSRKGDVLHMHYTGKLEDGTEFDSSLPRNQPFVFSLGTGEVIKGWDQGLLGMCEGEKRKLVAPSELGYGERGHPPKIPGGATLVFEVELLKIER
modifications: Description of sequence: FKBP13-AcGFP-mCherry Fusion; Construct Name: FKBP-057; FKBP13 DRD in Construct : FKBP13 (mutated to match FKBP12 active site - Q72R Q84E A117H) (DRD - I106A)
Fold Change [1]: 2.7

B5: FKBP-063: FKBP13 DRD Q72R, Q84E, A117H, M54A, C42S; SEQ ID NO: 19 (protein)
chain: HSPIKSRKGDVLHAHYTGKLEDGTEFDSSLPRNQPFVFSLGTGEVIKGWDQGLLGMCEGEKRKLVIPSELGYGERGHPPKIPGGATLVFEVELLKIER
modifications: Description of sequence: FKBP13-AcGFP-mCherry Fusion; Construct Name: FKBP-063; FKBP13 DRD in Construct : FKBP13 (mutated to match FKBP12 active site - Q72R Q84E A117H) (DRD - M54A C42S )
DRD function after abrogating the disulfide bonds (tacrolimus dose response): did not create a significant difference in DRD function
Fold Change [1]: 7.3

B6: FKBP-054: FKBP13 DRD Q72R, Q84E, A117H, D90G, L127K; SEQ ID NO: 10 (protein)
chain: HCPIKSRKGDVLHMHYTGKLEDGTEFDSSLPRNQPFVFSLGTGEVIKGWGQGLLGMCEGEKRKLVIPSELGYGERGHPPKIPGGATKVFEVELLKIER
modifications: Description of sequence: FKBP13-AcGFP-mCherry Fusion; Construct Name: FKBP-054; FKBP13 DRD in Construct : FKBP13 (mutated to match FKBP12 active site - Q72R Q84E A117H) (DRD - D90G L127K)
Fold Change [1]: 0.9

B7: FKBP-055: FKBP13 DRD Q72R, Q84E, A117H, F78V; SEQ ID NO: 11 (protein)
chain: HCPIKSRKGDVLHMHYTGKLEDGTEFDSSLPRNQPFVVSLGTGEVIKGWDQGLLGMCEGEKRKLVIPSELGYGERGHPPKIPGGATLVFEVELLKIER
modifications: Description of sequence: FKBP13-AcGFP-mCherry Fusion; Construct Name: FKBP-055; FKBP13 DRD in Construct : FKBP13 mutated to match FKBP12 active site - (Q72R Q84E A117H) (DRD - F78V)
Fold Change [1]: 9.0

B8: FKBP-056: FKBP13 DRD Q72R, Q84E, A117H, F129K; SEQ ID NO: 12 (protein)
chain: HCPIKSRKGDVLHMHYTGKLEDGTEFDSSLPRNQPFVFSLGTGEVIKGWDQGLLGMCEGEKRKLVIPSELGYGERGHPPKIPGGATLVKEVELLKIER
modifications: Description of sequence: FKBP13-AcGFP-mCherry Fusion; Construct Name: FKBP-056; FKBP13 DRD in Construct : FKBP13 (mutated to match FKBP12 active site - Q72R Q84E A117H) (DRD - F129K)
Fold Change [1]: 1.0

B9: FKBP-272: constructed from FKBP-195 by changing the K135Y mutation to K135L (protein)
chain: HCPIKSRKGDVLHMHYTGKLEDGTEFDSSLPRNQPFVFSLGTGERIKGWDQGLLGMCEGEKRKLVIPSELGYGERGWPPKIPGGATLVFEVELLLIER
modifications: Description of sequence: Construct Name: FKBP-272; Mutation(s): Q72R Q84E A117W V85R DRD K135L
notes: constructed from FKBP-195 by changing the K135Y mutation to K135L
Basal (FIG. 39): 71.5
FC (FIG. 39): 85
Peak (FIG. 39): 5857
Basal (FIG. 50): 55.6
FC (FIG. 50): 105.86
At 10 uM (FIG. 50): 5886
basal AcGFP expression: lower basal AcGFP expression
Fold Change [2]: 105.86

B10: FKBP-263: based on FKBP-215 removing the M54A mutation (protein)
chain: HCRIKSRKGDVLHMHYTGKLEDGTEFDSSLPRNQPFVFSLGTGGRIKGWDQGLLGMCEGEKRKLVIPSELGYGERGWPPKIPGGATLVFEVELLYIER
modifications: Description of sequence: Construct Name: FKBP-263; Mutation(s): Q72R Q84G A117W V85R DRD P43R K135Y
notes: based on FKBP-215 removing the M54A mutation
Basal (FIG. 49, BR1 (Biorep 1)): 56
FC (FIG. 49, BR1 (Biorep 1)): 49.02
At 10 uM (FIG. 49, BR1 (Biorep 1)): 2745
Basal (FIG. 49, BR2 (Biorep 2)): 63.3
FC (FIG. 49, BR2 (Biorep 2)): 45.75
At 10 uM (FIG. 49, BR2 (Biorep 2)): 2896
basal AcGFP expression: retained the low basal AcGFP expression
FC (tacrolimus, FIGS. 31 and 32): 56
Fold Change [2]: 56
